From patent publication US20240228986A1, “ENGINEERED CELLS, ENZYMES, AND METHODS FOR PRODUCING CANNABINOIDS” (priority 2021, published 2024)

How the values were obtained:
Assay type in all cases: cell-based, Yarrowia
olivetolic acid [1] = assay: MPT fusions with GPS1.1 vs unfused MPTs, OA feed (Example 8, Table 9); settings: 2 mM olivetolic acid, 48 h quench
Outline: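 Yeast strain sCL-SE-0128 carrying MPT or GPS1.1–MPT fusion plasmids, precultured 48 h in YNB/2% glucose/0.5% casamino acids/100 mM MES pH 6.5. Assay medium was the same plus 2 mM olivetolic acid, 30 °C. Cultures were ethanol-quenched at 48 h total growth, and CBGA and FCBGA were measured by HPLC-MS with internal standard; values are replicate means ± SD.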

olivetolic acid [2] = assay: GPS1.1 fusions of MPT21 mutants, OA feed (Example 8, Table 10); settings: 3 mM olivetolic acid, 6% glucose, 48 h quench; strain sCL-SE-0128
divarinic acid [3] = assay: MPT fusions with GPS1.1 vs unfused MPTs, DVA feed (Example 9, Table 11); settings: 2 mM divarinic acid
Description: As described below, plasmids pCL-SE-0406, pCL-SE-0664, pCL-SE-0663, pCL-SE-0662, pCL-SE-0380 (MPT4), pCL-SE-0337.MPT21, were transformed into strain sCL-SE-0128. Multiple colonies per transformation were precultured for 48 h in YNB containing glucose (2%), casamino acids (0.5%), and MES (100 mM pH 6.5). Pre-culture was used to inoculate assay medium comprised of YNB containing glucose (2%), casamino acids (0.5%), MES (100 mM pH 6.5), and divarinic acid (2 mM). Cultures were quenched after 48 h total growth and assayed for CBGVA and FCBGVA. Averages and standard deviations were calculated from replicates.
(§1) Overnight YPD (10 g/L yeast extract, 20 g/L peptone, 2% dextrose) cultures were inoculated from glycerol stocks of the appropriate strain and grown at 30° C. with 250 rpm shaking. Once cultures had reached an OD600 of 4-6, cultures were centrifuged at 500×g for 5 min, supernatants were discarded, and cell pellets were resuspended in equal volume of water. Resuspended cells were centrifuged at 500×g for 5 min, supernatants were discarded, and cells were resuspended in a volume (75 μL×OD×Vculture) of transformation cocktail (45% PEG-400, 0.1 M LiAc, 0.1 M DTT, and 25 ug/100 μL SS Salmon Sperm DNA). For each transformation, >1 μg of plasmid DNA was added to 55 μL cells/transformation cocktail and vortexed for 2 s. Transformations were incubated at 39° C. for 1 h with 250 rpm shaking. Transformations were resuspended in 750 μL YPD with 1 M sorbitol and recovered at 30° C. overnight with 250 rpm shaking. The next day, transformations were centrifuged at 500×g for 5 min, supernatants were discarded, and cell pellets were resuspended in 750 YPD. Resuspended transformations were plated on YPD with appropriate selection or YNBD (6.71 g/L yeast nitrogen base+nitrogen, 0.5% casamino acids, 2% dextrose) agar plates and grown at 30° C. for 2 days. Individual colonies were patched onto YPD plates with appropriate selection or YNBD plates and grown at 30° C. overnight. Patches were used to inoculate 0.5 mL YPD with appropriate selection or YNBD precultures in 96 w blocks and grown at 30° C. for 24-48 h with 1000 rpm shaking. For assays, 0.5 mL YPD with appropriate selection or YNBD cultures containing substrate were inoculated with 2 μL from precultures and grown at 30° C. for 2-4 days with 1000 rpm shaking with 2% glucose added every 24 h. Assay cultures were quenched by addition of 0.5 mL ethanol with 0.2% formic acid and 0.5 mg/mL pentyl-benzoic acid. Precipitates were pelleted by centrifuging at 4600×g for 10 min and then 200 μL was transferred to fresh plates, sealed, and analyzed via HPLC.
(§2) All samples were quenched with equal volume of EtOH containing 0.2 mg/mL internal standard (3,5-Diisopropyl-2-hydroxybenzoic acid CAS #2215-21-6) centrifuged, and clarified solutions were analyzed by HPLC-MS
(§3) • Column: 2.1×50 mm COSMOCORE PBr (Nacalai USA, Inc.) • Mobile Phase: A; 0.1% formic acid in water, B; 0.1% formic acid in acetonitrile • Flow: 0.45 mL/min • Temp: % 50 Celsius • Gradient: 20%B at 0 min, 70%B at 2.3 min, 89% B at 4.2 min, 20% B at 4.3 min, 20%B at 6 min

divarinic acid [4] = assay: GPS1.1 fusions of MPT21 mutants, DVA feed (Example 9, Table 12); settings: 2 mM divarinic acid, 2% glucose, quenched after 48 h; strain sCL-SE-0128
Description: as §1, §2, §3

hexanoic acid = assay: GPS-PKC-MPT fusions, hexanoic acid feed in vivo assay (Example 13)
Description: Strain SB-00311 (HCS2, PKS1.1 and PKC1.1) was co-transformed with 1) a construct (pCL-SE-0274) for expression of HMGR and GPS1.1 and 2) a construct (pCL-SE-0406) for expression of a fusion protein that contains, from N- to C-terminus, GPS1.1 and MPT4 linked using the F11 linker sequence or a construct (pCL-SE-0474) for expression of a fusion protein that contains, from N- to C-terminus, GPS1.1, PKC1.1 and MPT4, each linked using the F11 linker sequence.
Transformants were assessed for CBGA production from hexanoic acid. Assay cultures consisted of YNBD+CAA media with 2.5 mM hexanoic acid. After 24 h, an additional 5 mM hexanoic acid was added to each assay culture. Cultures were quenched after 48 h total growth.
Overnight YPD (10 g/L yeast extract, 20 g/L peptone, 2% dextrose) cultures were inoculated from glycerol stocks of the appropriate strain and grown at 30° C. with 250 rpm shaking. Once cultures had reached an OD600 of 4-6, cultures were centrifuged at 500×g for 5 min, supernatants were discarded, and cell pellets were resuspended in equal volume of water. Resuspended cells were centrifuged at 500×g for 5 min, supernatants were discarded, and cells were resuspended in a volume (75 μL×OD×Vculture) of transformation cocktail (45% PEG-400, 0.1 M LiAc, 0.1 M DTT, and 25 ug/100 μL SS Salmon Sperm DNA). For each transformation, >1 μg of plasmid DNA was added to 55 μL cells/transformation cocktail and vortexed for 2 s. Transformations were incubated at 39° C. for 1 h with 250 rpm shaking. Transformations were resuspended in 750 μL YPD with 1 M sorbitol and recovered at 30° C. overnight with 250 rpm shaking. […] Precipitates were pelleted by centrifuging at 4600×g for 10 min and then 200 μL was transferred to fresh plates, sealed, and analyzed via HPLC.
All samples were quenched with equal volume of EtOH containing 0.2 mg/mL internal standard (3,5-Diisopropyl-2-hydroxybenzoic acid CAS #2215-21-6) centrifuged, and clarified solutions were analyzed by HPLC-MS […]

[5] = 2% glucose, quenched after 48 h, strain sCL-SE-0128

B1: GPS1.1-F11-MPT21: fusion of GPS1.1 and MPT21 via F11 linker, SEQ ID NO: 25 (protein)
chain: MSKAKFESVFPRISEELVQLLRDEGLPQDAVQWFSDSLQYNCVGGKLNRGLSVVDTYQLLTGKKELDDEEYYRLALLGWLIELLQAFWLVSDDIMDESKTRRGQPCWYLKPKVGMIAIWDAFMLESGIYILLKKHFRQEKYYIDLVELFHDISFKTELGQLVDLLTAPEDEVDLNRFSLDKHSFIVRYKTAYYSFYLPVVLAMYVAGITNPKDLQQAMDVLIPLGEYFQVQDDYLDNFGDPEFIGKIGTDIQDNKCSWLVNKALQKATPEQRQILEDNYGVKDKSKELVIKKLYDDMKIEQDYLDYEEEVVGDIKKKIEQVDESRGFKKEVLNAFLAKIYKRQKGGAEAAAKEAAAKAGGSGGGSGGGGSGGSGGGGSGGGGSMSDNSIATKILNFGHTCWKLQRPYVVKGMISIACGLFGKELLHNTNLISWGLMWKAFFALVPILSFNFFAAIMNQIYDVDIDRINKPDLPLVSGEMSIETAWILSIIVALTGLIVTIKLKSAPLFVFIYIFGIFAGFAYSVPPIRWKQNPSTNFLITISSHVGLAFTSYYASRAALGLPFELRPSFTFLLAFMTVMGMTIAFAKDISDIEGDAKYGVSTVATKLGARNMTFVVSGVLLLNYVAAILAGIIWPQAFNSNVMLLSHAILAFCLIFQTRELALANYASAPSRQFFEFIWLLYYAEYFVYVFI
modifications: GPS1.1-F11-MPT21, geranyl diphosphate synthase, recombinant membrane-bound prenyltransferase fusion protein
For B1, the CBGA (olivetolic acid [1]; 2% glucose, strain sCL-SE-0128) was 156 ± 13 µM, the FCBGA (olivetolic acid [1]; 2% glucose, strain sCL-SE-0128) was 52 ± 5 µM and the CBGA/FCBGA (olivetolic acid [1]; product ratio) was 3.0. The CBGA (olivetolic acid [2]) was 276 ± 17 µM, the FCBGA (olivetolic acid [2]) was 89 ± 4 µM and the CBGVA (divarinic acid [3]; [5]) was 28 ± 2 µM. The FCBGVA (divarinic acid [3]; [5]) was 4 ± 0 µM, the CBGVA/FCB (divarinic acid [3]; 48 h, product ratio) was 7.2 and the CBGVA (divarinic acid [4]) was 58 ± 7 µM. For the same molecule, the FCBGVA (divarinic acid [4]) was 6 ± 1 µM.

B2: GPS1.1-F11-PKC1.1-F11-MPT4: triple fusion of GPS1.1, PKC1.1 and MPT4 via F11 linkers, SEQ ID NO: 92 (protein)
chain: MSKAKFESVFPRISEELVQLLRDEGLPQDAVQWFSDSLQYNCVGGKLNRGLSVVDTYQLLTGKKELDDEEYYRLALLGWLIELLQAFWLVSDDIMDESKTRRGQPCWYLKPKVGMIAIWDAFMLESGIYILLKKHFRQEKYYIDLVELFHDISFKTELGQLVDLLTAPEDEVDLNRFSLDKHSFIVRYKTAYYSFYLPVVLAMYVAGITNPKDLQQAMDVLIPLGEYFQVQDDYLDNFGDPEFIGKIGTDIQDNKCSWLVNKALQKATPEQRQILEDNYGVKDKSKELVIKKLYDDMKIEQDYLDYEEEVVGDIKKKIEQVDESRGFKKEVLNAFLAKIYKRQKGGAEAAAKEAAAKAGGSGGGSGGGGSGGSGGGGSGGGGSMAVKHLIVLKFKDEITEAQKEEFFKTFVNLVNIIPAMKDVYWGKDVTQKNKEEGYTHIVEVTFESVETIQDYIIHPAHVGFGDVYRSFWEKLLIFDYTPRKGGAEAAAKEAAAKAGGSGGGSGGGGSGGSGGGGSGGGGSMSDNSIATKILNFGHTCWKLQRPYVVKGMISIACGLFGRELFNNRHLFSWGLMWKAFFALVPILSFNFFAAIMNQIYDVDIDRINKPDLPLVSGEMSIETAWILSIIVALTGLIVTIKLKSAPLFVFIYIFGIFAGFAYSVPPIRWKQYPFTNFLITISSHVGLAFTSYSATTSALGLPFVWRPAFSFIIAFMTVMGMTIAFAKDISDIEGDAKYGVSTVATKLGARNMTFVVSGVLLLNYLVSISIGIIWPQVFKSNIMILSHAILAFCLIFQTRELALANYASAPSRQFFEFIWLLYYAEYFVYVFI
modifications: GPS1.1-F11-PKC1.1-F11-MPT4, geranyl diphosphate synthase, polyketide cyclase, membrane-bound prenyltransferase fusion protein
In the case of B2, the CBGA (hexanoic acid; hexanoic acid 2.5 mM plus 5 mM after 24 h, 48 h quench, strain SB-00311 + pCL-SE-0274, average of 44 or 34 transformants) is reported as 77.4 ± 32.4 µM and the “production of CBGA compared to the GPS1.1-MPT4 double fusion” value (hexanoic acid; in words, hexanoic acid feed) is reported as “improved production of CBGA”.
